Assay results from paper PMC11041685, “Emergence of fractal geometries in the evolution of a metabolic enzyme” (Nature, 2024).
Where “and” joins values, the source holds several entries; their conditions need not be identical. Equal entries are not always repeated. One block for each molecule: values may come before it.

How the values were obtained:
[1] = molecular target: D147A SeCS (Synechococcus elongatus PCC 7942); assay: mass photometry; 50 nM protein unless stated otherwise, in PBS or 20 mM Tris, 200 mM NaCl pH 7.5; masses of the complexes in solution, fraction of CS subunits in each oligomeric state
[2] = molecular target: D147A SeCS (Synechococcus elongatus PCC 7942); assay: native MS; 200 mM ammonium acetate, positive-ion nanoelectrospray; D147A at 20 µM, D147A + L18Q at 35 µM
[3] = molecular target: D147A SeCS (Synechococcus elongatus PCC 7942); assay: as above; remark: listed apart in the source
[4] = molecular target: H369R SeCS (Synechococcus elongatus PCC 7942); assay: mass photometry; 50 nM protein unless stated otherwise, in PBS or 20 mM Tris, 200 mM NaCl pH 7.5; masses of the complexes in solution, fraction of CS subunits in each oligomeric state
[5] = molecular target: H369R SeCS (Synechococcus elongatus PCC 7942); assay: cryo-EM structure; 22.5 µM protein on Quantifoil 2/1 grids
[6] = molecular target: H369R SeCS (Synechococcus elongatus PCC 7942); assay: as above; remark: listed apart in the source
[7] = molecular target: H369R SeCS (Synechococcus elongatus PCC 7942); assay: negative-stain electron microscopy; 450 nM protein on carbon-coated copper grids, 2% uranyl acetate; 2D class averages and manual particle counts
[8] = molecular target: SeCS D147A + L18Q (Synechococcus elongatus PCC 7942); assay: mass photometry; 50 nM protein unless stated otherwise, in PBS or 20 mM Tris, 200 mM NaCl pH 7.5; masses of the complexes in solution, fraction of CS subunits in each oligomeric state
[9] = molecular target: SeCS D147A + L18Q (Synechococcus elongatus PCC 7942); assay: native MS; 200 mM ammonium acetate, positive-ion nanoelectrospray; D147A at 20 µM, D147A + L18Q at 35 µM
[10] = molecular target: SeCS L18Q (Synechococcus elongatus PCC 7942); assay: mass photometry; 50 nM protein unless stated otherwise, in PBS or 20 mM Tris, 200 mM NaCl pH 7.5; masses of the complexes in solution, fraction of CS subunits in each oligomeric state
[11] = molecular target: SeCS L18Q (Synechococcus elongatus PCC 7942); assay: SAXS; dilution series from the highest concentration, 25 mM Tris-HCl pH 7.5, 200 mM NaCl, 20 °C; Rg by Guinier approximation against Rg of models of the 6mer, 18mer and 54mer
[12] = molecular target: SeCS L18Q (Synechococcus elongatus PCC 7942); assay: negative-stain electron microscopy; 450 nM protein on carbon-coated copper grids, 2% uranyl acetate; 2D class averages and manual particle counts
[13] = molecular target: citrate synthase from Cyanobium sp. PCC7001 (Cyanobium sp. PCC7001); assay: mass photometry; 50 nM protein unless stated otherwise, in PBS or 20 mM Tris, 200 mM NaCl pH 7.5; masses of the complexes in solution, fraction of CS subunits in each oligomeric state
[14] = molecular target: citrate synthase from Planktothrix mougeotii (Planktothrix mougeotii); assay: as above
[15] = molecular target: citrate synthase from Synechococcus elongatus PCC 7942 (Synechococcus elongatus PCC 7942); assay: as above
[16] = molecular target: citrate synthase from Synechococcus elongatus PCC 7942 (Synechococcus elongatus PCC 7942); assay: cryo-EM structure; 22.5 µM protein on Quantifoil 2/1 grids
[17] = molecular target: citrate synthase from Synechococcus elongatus PCC 7942 (Synechococcus elongatus PCC 7942); assay: crystal structure; 250 µM protein incubated with 5 mM acetyl-CoA; 0.1 M citrate pH 5.5, 2.0 M ammonium sulfate, 20 °C; citrate-bound
[18] = molecular target: citrate synthase from Synechococcus elongatus PCC 7942 (Synechococcus elongatus PCC 7942); assay: mass photometry; pH titration, 20 mM Tris, 200 mM NaCl pH 7–9.5, 50 nM protein
[19] = molecular target: citrate synthase from Synechococcus elongatus PCC 7942 (Synechococcus elongatus PCC 7942); assay: mass photometry; with acetyl-CoA, oxaloacetate or citrate: protein incubated 10 min with the substrate, same substrate concentration in the buffer; cys4 after oxidation
[20] = molecular target: citrate synthase from Synechococcus elongatus PCC 7942 (Synechococcus elongatus PCC 7942); assay: SAXS; dilution series from the highest concentration, 25 mM Tris-HCl pH 7.5, 200 mM NaCl, 20 °C; Rg by Guinier approximation against Rg of models of the 6mer, 18mer and 54mer
[21] = molecular target: citrate synthase from Synechococcus elongatus PCC 7942 (Synechococcus elongatus PCC 7942); assay: negative-stain electron microscopy; 450 nM protein on carbon-coated copper grids, 2% uranyl acetate; 2D class averages and manual particle counts
[22] = molecular target: Δ2–6 SeCS (Synechococcus elongatus PCC 7942); assay: mass photometry; 50 nM protein unless stated otherwise, in PBS or 20 mM Tris, 200 mM NaCl pH 7.5; masses of the complexes in solution, fraction of CS subunits in each oligomeric state
[23] = molecular target: Δ2–6 SeCS (Synechococcus elongatus PCC 7942); assay: cryo-EM structure; 22.5 µM protein on Quantifoil 2/1 grids
purified protein [24] = substrate: O=C(O)CC(=O)C(=O)O; assay: purified protein; format: biochemical, Synechococcus elongatus; conditions: 0.5 mM acetyl-CoA, 50 mM Tris pH 7.5, 10 mM KCl, 25 nM protein, 25 °C
purified protein [25] = substrate: CC(=O)SCCNC(=O)CCNC(=O)[C@H](O)C(C)(C)COP(=O)(O)OP(=O)(O)OC[C@H]1O[C@@H](n2cnc3c(N)ncnc32)[C@H](O)[C@@H]1OP(=O)(O)O; assay: purified protein; format: biochemical, Synechococcus elongatus; conditions: 1 mM oxaloacetate, 50 mM Tris pH 7.5, 10 mM KCl, 25 nM protein, 25 °C

Molecule: SeCS L18Q (enzyme)
- stoichiometry N [10]: 6 subunits
- stoichiometry N [11]: 6 subunits
- stoichiometry N [12]: 6 subunits

Molecule: citrate synthase from Cyanobium sp. PCC7001 (enzyme)
- stoichiometry N [13]: 2 subunits

Molecule: citrate synthase from Planktothrix mougeotii (enzyme)
- stoichiometry N [14]: 18 subunits

B1: SeCS (CS of S. elongatus PCC 7942) (Synechococcus elongatus PCC 7942 = FACHB-805) (protein)
chain: MTAVSEFRPGLEGVPATLSSISFVDGQRGVLEYRGISIEQLAQQSSFLETAYLLIWGHLPTQQELTEFEHEIRYHRRIKFRIRDMMKCFPDSGHPMDALQASAAALGLFYSRRALDDPEYIRAAVVRLLAKIPTMVAAFQLIRKGNDPIQPRDELDYAANFLYMLTEREPDPVAARIFDICLTLHAEHTINASTFSAMVTASTLTDPYAVVASAVGTLAGPLHGGANEEVLDMLEAIGSVENVEPYLDHCIATKTRIMGFGHRVYKVKDPRAVILQNLAEQLFDIFGHDPYYEIAVAVEKAAAERLSHKGIYPNVDFYSGLVYRKLGIPSDLFTPVFAIARVAGWLAHWKEQLNENRIFRPTQIYTGSHNLDYTPIADRDLAIESD
notes: full length, C-terminal His tag (LE-HHHHHH) kept, E. coli BL21 (DE3); 18mer, active as homohexamer
- Km (purified protein [24]): 65.6 ± 10.6 µM
- kcat (purified protein [24]): 19.5 ± 1.7 s⁻¹
- Km (purified protein [25]): 91.8 ± 9.2 µM
- kcat (purified protein [25]): 24.2 ± 1.3 s⁻¹

Now from value to molecule:

- stoichiometry N [1]: 2 subunits
- stoichiometry N [2]: 4 subunits and 6 subunits
- stoichiometry N [3]: > 8 subunits
Molecule: D147A SeCS (enzyme)

- stoichiometry N [4]: 18 subunits
- stoichiometry N [5]: 54 subunits
- stoichiometry N [6]: 18 subunits
- stoichiometry N [7]: 18 subunits and 54 subunits
Molecule: H369R SeCS (enzyme)

- stoichiometry N [8]: 2 subunits
- stoichiometry N [9]: 2 subunits and 6 subunits
Molecule: SeCS D147A + L18Q (enzyme)

- stoichiometry N [15]: 18 subunits
- stoichiometry N [16]: 18 subunits
- stoichiometry N [17]: 6 subunits
- stoichiometry N [18]: 6 subunits
- stoichiometry N [19]: 6 subunits
- stoichiometry N [20]: > 54 subunits
- stoichiometry N [21]: 18 subunits and 36 subunits and 54 subunits
Molecule: citrate synthase from Synechococcus elongatus PCC 7942 (enzyme)

- stoichiometry N [22]: 6 subunits
- stoichiometry N [23]: 6 subunits
Molecule: Δ2–6 SeCS (enzyme)
